Measurements taken from patent US20070104726A1.

Legend:
[1] = target: IgG constant region-CD21 fusion protein (UniProt P20023); assay: ELISA, IgG constant region-CD21 fusion coated; reference monomeric C3d (Calbiochem)
[2] = target: CD21 (CR2) on human CD21+ Raji lymphoblastoid cells (human) (UniProt P20023); assay: flow cytometry on Raji cells, 100 nM; reference monomeric C3d (Calbiochem)

fold increase in gradient of the linear portion of the binding curve against monomeric C3d [1]: 3.4 fold | fold signal intensity increase against C3d (Calbiochem) [2]: 6.4 fold
Substance: linear trimer of human C3d, called C3d3 or APT2029
